In publication PMC8192741, “The Komagataeibacter europaeus GqqA is the prototype of a novel bifunctional N-Acyl-homoserine lactone acylase with prephenate dehydratase activity” (Scientific Reports, 2021):

T1: SeGqqA (Komagataeibacter europaeus, UniProt A0A0M0ELU2, DEL86-170)
T1 construct: gene gqqA; selenomethionine-substituted GqqA; residues 86-170 lost by proteolysis during crystallization (not engineered; termini V85 and His171); made as full length with C-terminal TEV site and His6 tag in E. coli BL21(DE3)
T1 sequence (A0A0M0ELU2 with tags, fused parts or gaps DEL86-170): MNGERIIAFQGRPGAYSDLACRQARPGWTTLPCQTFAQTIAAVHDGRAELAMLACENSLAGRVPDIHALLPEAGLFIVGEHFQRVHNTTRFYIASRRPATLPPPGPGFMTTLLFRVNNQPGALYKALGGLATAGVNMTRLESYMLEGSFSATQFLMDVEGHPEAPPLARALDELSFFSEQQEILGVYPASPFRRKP


Columns and labels:
[1] = molecular target: T1, SeGqqA; assay: X-ray crystal structure (SAD), […] Å; assay type: binding; conditions: ACT regulatory domain; not added
[2] = molecular target: T2, GqqA (Komagataeibacter europaeus, UniProt A0A0M0ELU2); assay: X-ray crystal structure, […] Å; assay type: binding; conditions: ACT regulatory domain at dimer interface, one per monomer; co-purified, not added
T2 construct: E. coli BL21(DE3); homodimer of 61 kDa; primers encode N-terminus MNGERIIA and C-terminus LRRKP; PDT domain 1-180, ACT domain 194-281

[3] = substrate: CCCC(=O)CC(=O)N[C@H]1CCOC1=O; assay: purified protein; assay type: biochemical, Komagataeibacter europaeus; conditions: 5 mM EPPS pH 8.0, 0.5 mM Phenol Red, 30 °C, substrate 0-65 mM
[4] = substrate: CCCCCC(=O)CC(=O)N[C@H]1CCOC1=O; assay: purified protein; assay type: biochemical, Komagataeibacter europaeus; conditions: 5 mM EPPS pH 8.0, 0.5 mM Phenol Red, 30 °C, substrate 0-65 mM
[5] = substrate: CCCCCCCCCC(=O)CC(=O)N[C@H]1CCOC1=O; assay: purified protein; assay type: biochemical, Komagataeibacter europaeus; conditions: 5 mM EPPS pH 8.0, 0.5 mM Phenol Red, 30 °C, substrate 0-65 mM
[6] = substrate: CCCCCCCC(=O)CC(=O)N[C@H]1CCOC1=O; assay: purified protein; assay type: biochemical, Komagataeibacter europaeus; conditions: 5 mM EPPS pH 8.0, 0.5 mM Phenol Red, 30 °C, substrate 0-65 mM
[7] = molecular target: the molecule itself; assay: dynamic light scattering; GqqA 3.6 mg/ml in 0.1 M K2HPO4 pH 5.0, 150 mM NaCl, 20 °C; hydrodynamic radius 3.9 ± 0.1 nm; long-term measurement at room temperature for 4 days

Row | Molecule | X-ray crystal structure (SAD), 1.7 Å [1] | X-ray crystal structure, 2.5 Å [2] | Km [3] [mM] | Vmax [3] [µmol/min/mg] | Vmax/Km [3] [µL/min/mg] | Km [4] [mM] | Vmax [4] [µmol/min/mg] | Vmax/Km [4] [µL/min/mg] | Km [5] [mM] | Vmax [5] [µmol/min/mg] | Vmax/Km [5] [µL/min/mg] | Km [6] [mM] | Vmax [6] [µmol/min/mg] | Vmax/Km [6] [µL/min/mg] | stoichiometry N [7]
1 | N[C@@H](Cc1ccccc1)C(=O)O [L-Phe] | L-Phe is also bound in the truncated SeGqqA. | within the dimer interface we identified two L-Phe molecules | – | – | – | – | – | – | – | – | – | – | – | – | –
2 | GqqA (enzyme, Komagataeibacter europaeus CECT 8546, GqqA, quorum quenching N-acyl-homoserine lactone acylase / prephenate dehydratase of Komagataeibacter europaeus CECT 8546; 281 amino acid residues, about 30.5 kDa; PDT domain 1-180, ACT domain 194-281; the gene was integrated in pET21a; no removal of the tag by TEV is described; also called native GqqA; GqqA wt; source: E. coli BL21 (DE3), purified (Ni-NTA, size-exclusion chromatography)) MNGERIIAFQGRPGAYSDLACRQARPGWTTLPCQTFAQTIAAVHDGRAELAMLACENSLAGRVPDIHALLPEAGLFIVGEHFQRVEHCLLGIPGSTLADARRIHTHPVAMAQVRGIITELGLDPVVEFDTAGAAEMVREWGRKEDVAVASALAAELNGLEILRRNVEDATHNTTRFYIASRRPATLPPPGPGFMTTLLFRVNNQPGALYKALGGLATAGVNMTRLESYMLEGSFSATQFLMDVEGHPEAPPLARALDELSFFSEQQEILGVYPASPFRRKP | – | – | 6.89 ± 0.15 | 109 | 15900 | 4.87 ± 0.12 | 117 | 24100 | 16.7 ± 0.5 | 13.8 | 820 | 2.36 ± 0.35 | 152 | 64500 | 2
